Reference: patent publication US20040258656
pKd: −log10 of the molar value.

Columns and labels:
[1] = molecular target: T1, TGFβ2 (transforming growth factor beta 2) (Homo sapiens) (UniProt P61812); experiment: filter; conditions: 2'-F C and U
T1 sequence: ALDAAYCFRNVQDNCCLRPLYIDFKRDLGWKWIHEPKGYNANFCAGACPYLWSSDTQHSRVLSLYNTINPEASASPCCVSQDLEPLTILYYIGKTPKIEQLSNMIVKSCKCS

[2] = molecular target: T2, TGFβ3 (transforming growth factor beta 3) (Homo sapiens) (UniProt P10600); experiment: filter; conditions: 2'-F C and U; round 0 pool
T2 sequence: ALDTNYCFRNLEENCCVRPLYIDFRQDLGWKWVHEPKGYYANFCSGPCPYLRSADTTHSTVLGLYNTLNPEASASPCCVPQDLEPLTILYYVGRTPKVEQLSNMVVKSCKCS

Sequence: GGGAGGACGAUGCGGNNNNNNNNNNNNNNNNNNNNNNNNNNNNNNNNNNCAGACGACUCGCCCGA [34N7.21a-21 biased round 0 pool]
- pKd ([1]; biased round 0 pool, protein excess): 6.06

Sequence: GGGAGGACGAUGCGGNNNNNNNNNNNNNNNNNNNNNNNNNNNNNNNNNNNNNNNNCAGACGACUCGCCCGA [round 0 40N7 pool]
- pKd ([1]; round 0 pool, printed as >10 [M): < 5.00
- pKd [2]: < 5.00
